Results published in US20030096306A1.

Biological target: GCN4 leucine zipper (aa 245-285) fused C-terminal to LexA (yeast)
Experiment: cell-based or functional assay

Work on “Gal4 AD-anti-GCN4 (H-R66K) scFv (from UniProt P04386 768-881)” yielded a growth on -Trp/-Leu/-His plates with 3-AT (HIS3 reporter, two hybrid) of 20 mM 3-AT.
